T1: hu HIL6 AFH monomer (human)
T1 chain: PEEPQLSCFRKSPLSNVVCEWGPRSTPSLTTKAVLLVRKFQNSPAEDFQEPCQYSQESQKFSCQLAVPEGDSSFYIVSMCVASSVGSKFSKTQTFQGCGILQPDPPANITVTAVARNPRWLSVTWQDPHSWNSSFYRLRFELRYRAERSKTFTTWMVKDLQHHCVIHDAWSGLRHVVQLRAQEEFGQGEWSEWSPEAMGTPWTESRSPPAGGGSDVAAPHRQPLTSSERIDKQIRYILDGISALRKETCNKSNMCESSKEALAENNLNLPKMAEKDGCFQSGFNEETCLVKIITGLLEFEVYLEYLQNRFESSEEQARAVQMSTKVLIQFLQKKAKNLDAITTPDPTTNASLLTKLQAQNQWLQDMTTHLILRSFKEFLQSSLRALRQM

T2: hu HIL6 Fc dimer (dimeric human HIL6/mouse IgG Fc fusion protein) (human)
T2 construct: also called human hyper-IL6 (IL6R-IL6-mIgG); dimeric HIL6
T2 chain: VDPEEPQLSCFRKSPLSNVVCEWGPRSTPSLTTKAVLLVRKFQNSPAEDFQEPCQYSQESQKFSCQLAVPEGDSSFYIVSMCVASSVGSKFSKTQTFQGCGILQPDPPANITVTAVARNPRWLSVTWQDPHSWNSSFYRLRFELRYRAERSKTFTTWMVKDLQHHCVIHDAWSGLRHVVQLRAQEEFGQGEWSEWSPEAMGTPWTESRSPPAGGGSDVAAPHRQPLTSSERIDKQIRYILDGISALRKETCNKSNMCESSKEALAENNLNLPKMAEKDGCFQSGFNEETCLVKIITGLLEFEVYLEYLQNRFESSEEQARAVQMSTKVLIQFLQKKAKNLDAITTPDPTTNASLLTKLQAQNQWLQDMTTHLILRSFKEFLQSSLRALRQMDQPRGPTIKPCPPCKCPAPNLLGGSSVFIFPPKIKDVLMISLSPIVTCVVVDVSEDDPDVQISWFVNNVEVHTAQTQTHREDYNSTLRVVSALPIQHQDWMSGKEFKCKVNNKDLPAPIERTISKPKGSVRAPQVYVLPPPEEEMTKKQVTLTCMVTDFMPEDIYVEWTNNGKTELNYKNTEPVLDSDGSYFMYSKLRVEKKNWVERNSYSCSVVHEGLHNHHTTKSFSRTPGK

T3: sIL6R Fc dimer (UniProt P08887 20-358, limits assumed)
T3 construct: not shown: Fc
T3 sequence (looked up): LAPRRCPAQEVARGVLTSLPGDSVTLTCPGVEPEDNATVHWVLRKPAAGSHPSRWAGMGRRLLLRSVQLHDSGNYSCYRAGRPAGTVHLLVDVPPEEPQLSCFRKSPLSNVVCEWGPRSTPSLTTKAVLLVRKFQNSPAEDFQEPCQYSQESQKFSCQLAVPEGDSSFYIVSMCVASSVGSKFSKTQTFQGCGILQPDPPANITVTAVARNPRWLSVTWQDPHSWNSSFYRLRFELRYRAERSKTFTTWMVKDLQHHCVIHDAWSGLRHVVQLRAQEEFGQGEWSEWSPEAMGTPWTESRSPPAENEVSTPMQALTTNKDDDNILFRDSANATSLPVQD

B1: TRU(XT6)-1002 (Fc fusion)
chain: LPAQVAFTPYAPEPGSTCRLREYYDQTAQMCCSKCSPGQHAKVFCTKTSDTVCDSCEDSTYTQLWNWVPECLSCGSRCSSDQVETQACTREQNRICTCRPGWYCALSKQEGCRLCAPLRKCRPGFGVARPGTETSDVVCKPCAPGTFSNTTSSTDICRPHQICNVVAIPGNASMDAVCTSTSPTRSMAPGAVHLPQPVSTRSQHTQPTPEPSTAPSTSFLLPMGPSPPAEGSTGDTGEPKSSDKTHTCPPCPAPEAAGAPSVFLFPPKPKDTLMISRTPEVTCVVVDVSHEDPEVKFNWYVDGVEVHNAKTKPREEQYNSTYRVVSVLTVLHQDWLNGKAYACAVSNKALPAPIEKTISKAKGQPREPQVYTLPPSRDELTKNQVSLTCLVKGFYPSDIAVEWESNGQPENNYKTTPPVLDSDGSFFLYSKLTVDKSRWQQGNVFSCSVMHEALHNHYTQKSLSLSPGQRHNNSSLNTRTQKARHSPNSEVQLLESGGGLVQPGGSLRLSCAASGFTFSFYQMHWVRQAPGKGLEWVSGIYPSGGYTKYADSVKGRFTISRDNSKNTLYLQMNSLRAEDTAVYYCARDLGYGSSWYYFDYWGQGTLVTVSSGGGGSGGGGSGGGGSQSALTQPASVSGSPGQSITISCSGTDSDVGGYNHVSWYQQHPGKAPKLIIYDVDHRPSGISNRFSGSKSGNTASLTISGLQAEDEADYYCSSYRSGSTYVFGTGTKVTVL
notes: The entry holds a signal peptide that the mature protein lacks
B2: recombinant human soluble IL6 receptor (receptor)
chain: T3 sequence (looked up)
notes: also called sIL6R; sIL-6R

Experiment [1] deals with B2. Put plainly: ELISA, Xceptor captured by anti-human Fc. (An ELISA detects its analyte on a solid surface through an enzyme-linked reagent.)
The next experiment deals with T1, hu HIL6 AFH monomer. Description: SPR Biacore T100, binder captured by anti-human Fc. On the technique in general: SPR reads the build-up and loss of mass on a sensor chip optically.
In another experiment the target is T4, recombinant human TNF-α (human, UniProt P01375 77-233).
T4 construct: also called rhTNFα
Description: SPR Biacore T100, binder captured by anti-human Fc.

The target in experiment [2] is T2, hu HIL6 Fc dimer (dimeric human …). Description: SPR Biacore T100, binder captured by anti-human Fc.
Another experiment has as its target T3, sIL6R Fc dimer. Description: SPR Biacore T100, binder captured by anti-human Fc.
The next experiment concerns the target T5, TRU(XT6)-1042.
T5 construct: Xceptor, TNFRSF1B ectodomain N-terminal, anti-IL6xR domain C-terminal
Description: ELISA, Xceptor captured by anti-human Fc.

As usually defined, the Kd is a measure of binding affinity in units of concentration.

T4 sequence (P01375 77-233 limits assumed): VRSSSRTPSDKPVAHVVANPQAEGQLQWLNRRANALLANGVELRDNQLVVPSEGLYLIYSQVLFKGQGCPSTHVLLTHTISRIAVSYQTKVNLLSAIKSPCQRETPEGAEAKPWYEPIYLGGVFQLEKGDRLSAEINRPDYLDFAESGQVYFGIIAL

As to B1, the binding result is given as “no binding (tested: 75 pM sIL-6R)” in experiment [1] and “no binding (tested: 100 nM)” with sIL6R Fc dimer. For the same molecule, the Kd amounted to 4.9 nM with hu HIL6 AFH monomer, 3.1 pM with recombinant human TNF-α and 61 nM in experiment [2].

As for B2, in the experiment with TRU(XT6)-1042, the binding result is “no binding (tested: 75 pM sIL-6R)”.

The record behind these values is patent publication US20110142851A1 (EMERGENT PRODUCT DEVELOPMENT SEATTLE, published 2011).
